Test system: MS2 coat protein
Experiment: apparent KD of MS2 coat protein; higher = weaker reporter binding
Details: Eterna round: R107
Summary of the method: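 Illumina sequencing clusters served as templates for on-chip transcription of the designed RNA switches. SNAP-549-labelled MS2 coat protein was then titrated in twofold steps from 0.7 or 1.5 nM to 3 µM, allowing 0.8–1.5 h per step at first and 10–20 min per step later. The buffer held 100 mM Tris-HCl pH 7.5, 80 mM KCl and 4 mM MgCl2, without or with constant ligand. Apparent KD is the median per design of normalised cluster binding-curve fits.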

[1] = input ligand: theophylline 20 uM
[2] = input ligand: tryptophan 2.4 mM
[3] = input ligand: theophylline 2 mM

| Sequence | apparent KD of MS2 coat protein (input ligand: arginine 13.2 mM) | apparent KD of MS2 coat protein [1] | apparent KD of MS2 coat protein [2] | apparent KD of MS2 coat protein (input ligand: none) | apparent KD of MS2 coat protein [3] |
| --- | --- | --- | --- | --- | --- |
| UGAUCCUACAGAGAUACCAGUGCCGCUAGAUAACUAUGCACAUGAGGAUCACCCAUGUAACACCCUUGGCAGCUCAACUAAAGGG [Same State Theophylline B GF20] | 42.5 nM | 127 nM | 79.7 nM |  |  |
| UGAUGGUGCUGAAGGAGCGUGUAAGAACAAGAACAUGAGGAUCACCCAUGUAUUAAUUUAACACAGGUAGGUCGCGGUGUUAUUG [11.L] | 30.5 nM | 42.5 nM | 19.7 nM | 25.4 nM | 45.8 nM |
| UGCCGAGACGUGGAUUACCCGUGUACCGAAGGAGCGCCCGAAAGGGCAGGUAGGUCGCGGAGGACAUGAGGAUCACCCAUGUCGA | 37.3 nM | 93.5 nM | 83.7 nM | 52.1 nM | 65 nM |
| UGCCUAGACGUGGAUUACCCGUGUACCGAAGGAGCGCCCGAAAGGGCAGGUAGGUCGCGGAGGACAUGAGGAUCACCCAUGUUUA | 31.9 nM | 151 nM | 175 nM | 201 nM | 431 nM |
| UGCGAUGAACCUGAUACCAGAUGUAUUUGCUCCUCGGACAACAUGAGGAUCACCCAUGUCAUCCCUUGGCAGCAGGAGCGAAAGC [theeternabot_exclusion_MS2_Theo_B_21] | 12.8 nM | 14.3 nM | 11.4 nM |  |  |
| UGGCGAGAAGGAAGGAGCGUCAGCUGAGUCACAUGAGGAUCACCCAUGUAGCACAUAGUGUGACAGGUAGGUCGCCUUCUGCCCU [SS-ArgB17] | 13.5 nM | 15.4 nM | 9.41 nM | 10.3 nM | 10.8 nM |
| UGGUACAUGAGGAUCACCCAUGUGCCGGAUACCAGAGAGCCGGCUCUCCCUUGGCAGCUGGCGCGACAUGAGGAUCACCCAUGUG [Exclusion Theophylline A GF18] | 18.1 nM | 32.2 nM | 24.6 nM |  |  |
| UGGUACAUGGCGGCCGCCACUGGGUUGAAUACCUGAGGAUCACCCUGGUAAAACGCGAAAGCGACUAGGACCGGGUCAUGUACCU | 98.8 nM | 162 nM | 44.5 nM | 148 nM | 385 nM |
| UGGUACUAGGCGGCCGCCACUGGGUGAUACAUGAGGAUCACCCAUGUUUAAUGCCGAGAGGCAACCAGGACCGGGCCUAGUACAU | 139 nM | 366 nM | 19.5 nM | 327 nM | 473 nM |
| UGGUCCGGCGGAAGGAGCGACAUGAGGAUCACCCAUGUCUCCCGUUAUGGGAGUUCUUUAGGUCAGGUAGGUCGCCGGCGGGUCA [#1 Exclusion - Arginine B Attempt #11 (Inspired by Omei)] | 196 nM | 80.6 nM | 62.9 nM | 51.6 nM | 221 nM |
| UGGUGCCCUGUAUACAUUGUAAUCCUAAUGCGAGGACCGGUACGGCCGCCACUCGUUGCGGAACAUGAGGAUCACCCAUGUAACA [theeternabot_exclusion_MS2_Trp_A_21] | 17 nM | 26.2 nM |  |  | 32 nM |
| UGGUGUAGGGUAAAUAGGCUGAGUACAGAAGGAGCGCGAAUAAACGCAGGUAGGUCGCUGGACUCCACAUGAGGAUCACCCAUGU [Same State Arginine A GF 28] | 35.5 nM | 34.1 nM | 36.4 nM | 28.4 nM | 23.3 nM |
| UGGUUUGUGAUGGAUACCAGCAGAGAAAACGUUUAUCCUAACAUGAGGAUCACCCAUGUAUGCCCUUGGCAGCUGUUGUGGGCUG [8.T] | 31.9 nM | 49.5 nM | 30.4 nM |  |  |
| UGUAACAUGAGGAUCACCCAUGUAAGUGAUACCAGAUAAGUAGUAGUCCCUUGGCAGCAUAUUGGGAAAGUGUAUAGUCUAUACG [Same State - Theophylline A (Freestyle 5)] | 50 nM | 75.3 nM | 46.4 nM |  |  |
| UGUAACAUGAGGAUCACCCAUGUAAGUGAUACCAGAUAAGUAGUAGUCCCUUGGCAGCAUAUUGGGAAAGUGUAUAGUCUAUAUU [Same State - Theophylline A (Freestyle 3)] | 43.6 nM | 74.9 nM | 51.1 nM |  |  |
| UGUAACAUGAGGAUCACCCAUGUAAGUGAUACCAGAUAAGUAGUAGUCCCUUGGCAGCAUAUUGGGAAAGUGUAUAGUGUAUAUG [Same State - Theophylline A (Freestyle 4)] | 48.9 nM | 72.3 nM | 58.4 nM |  |  |
| UGUAACAUGAGGAUCACCCAUGUGAGUGAUACCAGACUAGUGUUAGUCCCUUGGCAGCACGCUGGACAAAUGUGUAGUCUAUGCG [Same State - Theophylline A (Freestyle 20)] | 40.2 nM | 112 nM | 70.5 nM | 72.7 nM | 62.6 nM |
| UGUACCAUGUCGGCCGCCACUCAUGAUAAACAUGAGGAUCACCCAUGUGGCGUCAAAGACGCUAUGAGGACCGGGACAUGGUACU [TryBS Zipper 3 #StaticStem #Zipper] | 15.3 nM | 19.9 nM |  |  | 15.7 nM |
| UGUAUGGACUGAAGGAGCGGGUAAUAAAUCUGAGGAUCACCCAGGUAAUAGGCGAAAGCCACCCAGGUAGGUCGCAGUCCAUACU | 17.7 nM | 25.1 nM | 19.4 nM | 19 nM | 19.3 nM |
| UGUAUGUGAAGUGAUACCAGUCCAUAAACUGGAACAUGAGGAUCACCCAUGUAAUGGGUGGACCCUUGGCAGCACUUCUCAUACU [First try] | 48 nM | 468 nM | 190 nM |  |  |

| Sequence | apparent KD of MS2 coat protein (input ligand: arginine 13.2 mM) | apparent KD of MS2 coat protein [1] | apparent KD of MS2 coat protein [2] | apparent KD of MS2 coat protein (input ligand: none) | apparent KD of MS2 coat protein [3] |
| --- | --- | --- | --- | --- | --- |
| UGUAUGUGAUCUGAUACCAGAGUUGAUAACCUGAGGAUCACCCUGGUAAAGGCGAAAGCCCUCCCUUGGCAGCAGAUCGCAUACU | 121 nM | 207 nM | 239 nM | 216 nM | 34.6 nM |
| UGUAUGUGAUCUGAUACCAGCGUUGAUAACCUGAGGAUCACCCUGGUAAGGCGAAAGCCGCGCCCUUGGCAGCAGAUCGCAUACU | 169 nM | 83.9 nM | 260 nM | 237 nM | 23.3 nM |
| UGUAUGUGAUCUGAUACCAGCUAAUAAAGCUUGAGGAUCACCCAAGUGGAGCGGAAACGCAGCCCUUGGCAGCAGAUCGCAUACU [Denovo 8 #StaticStem #AlternativeMS2] | 189 nM | 103 nM | 224 nM | 169 nM | 9.93 nM |
| UGUAUGUGAUCUGAUACCAGCUAGCGGAAACGCAGCUUGAGGAUCACCCAAGUGGAAAUAAGCCCUUGGCAGCAGAUCGCAUACU [Denovo 6 #StaticStem #AlternativeMS2] | 99.7 nM | 139 nM | 309 nM | 246 nM | 11.9 nM |
| UGUAUGUGAUCUGAUACCAGCUUAAUAGCUUGAGGAUCACCCAAGUGGAGCGGAAACGCUAGCCCUUGGCAGCAGAUCGCAUACU [Denovo 10 #StaticStem #AlternativeMS2] | 104 nM | 104 nM | 198 nM | 198 nM | 11.9 nM |
| UGUAUGUGAUCUGAUACCAGUCCAACUGGUAAAACAAGAGGAUCACCCUUGUAAAAUUGGGACCCUUGGCAGCAGAUCGCAUACU | 251 nM | 409 nM | 733 nM | 472 nM | 29.8 nM |
| UGUAUGUGAUCUGAUACCAGUCCAACUGGUAAAACCUGAGGAUCACCCAGGUAAAAUUGGGACCCUUGGCAGCAGAUCGCAUACU | 134 nM | 130 nM | 177 nM | 183 nM | 16.1 nM |
| UGUAUGUGAUUUGAUACCAGACCAGCUGGUGGUACCUGAGGAUCACCCAGGUAGGUUUGGGUCCCUUGGCAGCAAAUCGCAUACU [SS Theo B #24 Ms6] | 22 nM | 23.8 nM | 21.2 nM | 20.6 nM | 11.4 nM |
| UGUAUGUGAUUUGAUACCAGACCAGCUGGUGGUACCUGAGGAUCACCCGGGUAGGUUUGGGUCCCUUGGCAGCAAAUCGCAUACU [SS Theo B #24 Ms8] | 48.6 nM | 52.1 nM | 48.6 nM | 48.6 nM | 31.5 nM |
| UGUAUGUGAUUUGAUACCAGACCAGCUGGUGGUACUUGAGGAUCACCCAAGUAGGUUUGGGUCCCUUGGCAGCAAAUCGCAUACU [SS Theo B #24 Ms10] | 165 nM | 142 nM | 198 nM | 163 nM | 30.8 nM |
| UGUAUGUGAUUUGAUACCAGACCAGCUGGUGGUAUCUGAGGAUCACCCAGGUAGGUUUGGGUCCCUUGGCAGCAAAUCGCAUACU [SS Theo B #24 Ms15] | 145 nM | 892 nM | 1720 nM | 186 nM | 335 nM |
| UGUAUGUGAUUUGAUACCAGACCAGCUGGUGUUCCAUGAGGAUCACCCAUGGAGGUUUGGGUCCCUUGGCAGCAAAUCGCAUACU [SS Theo B #24 Ms16] | 33.2 nM | 34 nM | 30.3 nM | 25.2 nM | 23.2 nM |
| UGUAUGUGAUUUGAUACCAGUUCUGCUGGUAAAACAUGAGGAUCACCCAUGUUACUUUGGGACCCUUGGCAGCAAAUCGCAUACU [SSTheo B #27] | 90 nM | 119 nM | 202 nM |  |  |
| UGUCAGCGAAAGUUGACAUGUCUUACCGGUCGAGGACCGGUACGGCCGCCACUCGAUCUCUCGCACAUGAGGAUCACCCAUGUUG [SS Tryp A #22] | 19.3 nM | 29 nM |  |  | 26.5 nM |
| UGUCGGCCGCCAGGAAAUGGUGGCCGACAUCGAGGACCGGUACGGCCGCCACUCGGUCGUACAUGAGGAUCACCCAUGUCGGUGA [SameState-Tryptophan_A Attempt #10 (HarryS)] | 72.9 nM | 508 nM | 1200 nM | 496 nM | 942 nM |
| UGUGCAGGAUGCGUAAAGGGUCUUGCGCAUCGAGGACCGGUACGGCCGCCACUCGGCUGUACAUGAGGAUCACCCAUGUCAGGGU [#1 Same State - Tryptophan A Attempt #19 (HarryS)] | 87.1 nM | 445 nM | 533 nM | 477 nM | 1830 nM |
| UGUGUCGUCUGAAGGAGCGGCCCUUGAUCCUCGUGAGACAUGAGGAUCACCCAUGUCUCGGGCCAGGUAGGUCGCAGGCGGCACA [#25 Exclusion - Arginine B] | 11.5 nM | 17.2 nM | 12.6 nM | 11.9 nM | 12.8 nM |
| UGUUUUAAAAGUGAUACCAGACAAACAUGAGGAUCACCCAUGUAACAUGAGAGAUAAUAAGUCCCUUGGCAGCACAUAAUUAGUA [JR_Nu_SSTheophyB_Sub028] | 27 nM | 33.1 nM | 31.5 nM |  |  |
| UGUUUUGUGAUGGAUACCAGCAGAGAAAACGUUUAUCCUAACAUGAGGAUCACCCAUGUAUGCCCUUGGCAGCUGUUGUGGGAUA [8.R] | 27.2 nM | 43.9 nM | 27.9 nM |  |  |

Reference: the supplement of paper PMC9170038
